According to patent US12077763B2, “RNA-based control of powdery mildew” (Greenlight Biosciences, Inc., priority 2021, dated 2024):

System: E. necator
Assay: Leaf disc assay, dry inoculum (settling tower), decrease in disease severity / hyphal growth (Example 2)
Conditions: decrease in disease severity (hyphal growth) relative to untreated control, value ± SE; for % decrease =/− SE TP2: time point 2; for % decrease =/− SE TP1: time point 1 (untreated control hyphal growth ≥50%)

B1: GS3917 (nucleic acid)
sense: CCAGGCUAAAUCUGUGCUCCAAACACAGUCAGUAAUACAGACUUUAAUUGCUGAGUGUUUAUCUUUGGGGAAAACAAAAAUGAUUAUUGAUCUCUCCUCGAAUAGUGGAGGUAAUUUGGUCGUUGGUUAUGACACAUUCCGACAAUUUUUCCCUACCAUUGAACAGCCAGGUUAUUCACGAUUUCGAUUACACGAGGCGCUAAAAAUUAUUACGAAACAGAUCUCGAAAAUCGCAUCGAAUUUCUCUUUUACAAGUACAAACCCCACUGAUUAUGAUUAUUACCAAACUCCGUUUAAUUAUAGAUUCGAUCUAAAUGAAACCAAUGAAAAAUUUCUUAGCUACGAGGAUAAAUUCAGUCCAAGAAAAUUUAAUGGUGAUGAAUUCACUAGCAAUAUGA
antisense: UCAUAUUGCUAGUGAAUUCAUCACCAUUAAAUUUUCUUGGACUGAAUUUAUCCUCGUAGCUAAGAAAUUUUUCAUUGGUUUCAUUUAGAUCGAAUCUAUAAUUAAACGGAGUUUGGUAAUAAUCAUAAUCAGUGGGGUUUGUACUUGUAAAAGAGAAAUUCGAUGCGAUUUUCGAGAUCUGUUUCGUAAUAAUUUUUAGCGCCUCGUGUAAUCGAAAUCGUGAAUAACCUGGCUGUUCAAUGGUAGGGAAAAAUUGUCGGAAUGUGUCAUAACCAACGACCAAAUUACCUCCACUAUUCGAGGAGAGAUCAAUAAUCAUUUUUGUUUUCCCCAAAGAUAAACACUCAGCAAUUAAAGUCUGUAUUACUGACUGUGUUUGGAGCACAGAUUUAGCCUGG
- % decrease =/− SE TP2: 29 ± 12%

B2: GS3919 (nucleic acid)
sense: AUUGCGCCAAAAUGUGAGGUAAGGAUUACUAACUUGCUGAGCUUGAAGAACUCAUCAACACCAGUAUCUUUAGCUGGUAAACAAGUUAAGCAAAUUCAAAGCAACUUACCAUCGACAAGUAAACAACUUGGAAUAUUUGCAAAAGAAAACAUCUUACCGGGCGAAUCAAUCCUUAAAGAGCUGUCAUAUCUCACUGUUAAUAAUAGACUCAAAGGCCCUCUAUGUGAUGCUUGUAGUGCUGAAAUUCCUUCUCUAUAUGAAACUGAAAGUACAGCAAUGAGCUGUCUCGAGUGUGAUGAAAUCUCAUUCUGUAGUGAUGAAUGCAAACGUGGAGCUGAGCUCGAAUAUCAUCCAGCAGUAUGUGGUAAAGAUGUUGAGACAAUUGGCAAGGACUGG
antisense: CCAGUCCUUGCCAAUUGUCUCAACAUCUUUACCACAUACUGCUGGAUGAUAUUCGAGCUCAGCUCCACGUUUGCAUUCAUCACUACAGAAUGAGAUUUCAUCACACUCGAGACAGCUCAUUGCUGUACUUUCAGUUUCAUAUAGAGAAGGAAUUUCAGCACUACAAGCAUCACAUAGAGGGCCUUUGAGUCUAUUAUUAACAGUGAGAUAUGACAGCUCUUUAAGGAUUGAUUCGCCCGGUAAGAUGUUUUCUUUUGCAAAUAUUCCAAGUUGUUUACUUGUCGAUGGUAAGUUGCUUUGAAUUUGCUUAACUUGUUUACCAGCUAAAGAUACUGGUGUUGAUGAGUUCUUCAAGCUCAGCAAGUUAGUAAUCCUUACCUCACAUUUUGGCGCAAU
- % decrease =/− SE TP1: 23 ± 8%
- % decrease =/− SE TP2: 16 ± 9%

B3: GS1814: dsRNA trigger SEQ ID NO 161; gene target Importin subunit beta-3 (nucleic acid)
DNA: TTATTGGTGGTAGAATGTTCAAAACCTCTGATATAAGTTCATAGTATTTTTGCTTGGATTTTTTGTTGAGACTCCTGAAGAATGAAGCGAAAGCTTCCATAGCGGCCAGTCGGACTGTCACGTCATCATCCTTAAATCCCTTGGTAAAAGCAGAAAGAACAGTATCTTCATGCTGCTTTTCGATTATTCTAGGAGTTGTTGAGAAGATTCTATAGGCAATCTCACGTTGGCCCATCACTTGCGACATACTGAGTGTAAAGAGAACACCTAGAATTTCGGGCCATTGCAACTTATCATCGGAGTACTGCCTAGCGACTTCTGCGACTGCATCACCTATCTTATTTCTTGTAGACGTTTCGGTTTCAGAGCTAAGGGCTTCAAGAAGTTTTTGTCTGATAATATGTCCTTGTTCTGTCGGCAAAGAGATAAATGTTTCCACTGACTGATTATTTTGTAATTTTCGAGTCTTTGAAGCTATCCGTCTGAAGATGACTGCAGCAAAAGAGCGTTTCGCAGGATCGTTTGAGCCCTGAATTTGTTCCACCAGGCCAATCAAGAGCATCTCTGGTTTAAGCAACGTCCAATTATTCGTTAAAT
- % decrease =/− SE TP1: 8 ± 4%
